From patent publication US20200173986A1

How the values were obtained:
[1] = target: endogenous SNAP25 in total cell lysate; experiment: sandwich ELISA with total cell lysate, negative control
[2] = target: endogenous SNAP25 in total cell lysate; experiment: as above; remark: listed apart in the source
[3] = target: endogenous SNAP25 in total cell lysate; experiment: as above; remark: listed apart in the source
[4] = target: endogenous SNAP25 in total cell lysate; experiment: sandwich ELISA with total cell lysate, positive control
[5] = target: endogenous SNAP25 in total cell lysate; experiment: as above; remark: listed apart in the source
[6] = target: endogenous SNAP25 in total cell lysate; experiment: as above; remark: listed apart in the source

Sequence of endogenous SNAP25 in total cell lysate (P60879 whole entry): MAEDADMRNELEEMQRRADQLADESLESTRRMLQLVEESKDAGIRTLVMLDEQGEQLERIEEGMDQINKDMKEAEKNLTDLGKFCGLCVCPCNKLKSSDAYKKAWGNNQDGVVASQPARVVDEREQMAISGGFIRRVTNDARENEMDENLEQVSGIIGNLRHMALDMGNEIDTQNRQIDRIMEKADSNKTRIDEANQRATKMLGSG

Substance	ELISA signal (A450) [1]	ELISA signal (A450) [2]	ELISA signal (A450) [3]	ELISA signal (A450) [4]	ELISA signal (A450) [5]	ELISA signal (A450) [6]
NC	0.27	0.125	0.213	–	–	–
PC	–	–	–	3.49	2.77	2.5
